Results published in patent US20070258982A1 (Pfizer, published 2007).
Changes are numbered by the printed parent chain.

T1: IL-26 (human, UniProt Q9NPH9)
T1 construct: also called human IL-26
T1 sequence (cytokine, looked up): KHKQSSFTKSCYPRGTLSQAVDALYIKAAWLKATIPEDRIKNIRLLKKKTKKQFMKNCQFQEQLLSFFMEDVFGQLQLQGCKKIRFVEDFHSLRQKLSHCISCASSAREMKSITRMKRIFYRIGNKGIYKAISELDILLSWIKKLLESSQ

T2: human IL-22 (human, UniProt Q9GZX6 34-179)
T2 sequence: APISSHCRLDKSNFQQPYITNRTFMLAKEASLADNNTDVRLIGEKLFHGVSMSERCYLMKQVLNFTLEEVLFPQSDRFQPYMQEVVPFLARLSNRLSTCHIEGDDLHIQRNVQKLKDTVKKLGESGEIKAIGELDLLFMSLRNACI

B1: 087B03 IgG (germlined) (antibody, V domains shown)
VH: EVQLVESGGGVVRPGGSLRLSCAASGFTFDDYGMNWVRQAPGKGLEWVSGVNWNGGTRDYAASVKGRFTISRDNAKNSLYLQMNSLRAEDTALYHCARGWYSGAAWNMGYWGRGTLVTVSS
VL: QAALTQPASVSGSPGQSITISCTGASGDVGAYNFVSWYQQHPGKAPKLIIYDVNKRPSGVSNRFSGSKSGNTASLTISGLQAEDEADYYCSSYTSTFSVVFGGGTKLTVLG
B2: 166B06 IgG (germlined) (antibody, V domains shown)
VH: QVQLVQSGAEVKKPGASVKVSCKASGYTFSDYYIHWVRQAPGQGLEWMGWVNPDTGGTRYAQKFQGRVTMTRDMSISTAYMELSRLRSDDTAVYYCARDLTGFDPFDIWGQGTLVTVSS
VL: SSVLTQPPSVSVAPGKTARITCGGNNFRNKRVHWYQQKPGQAPVLVIYYDSDRPSGIPERFSGSRSGNTATLTISRVEAGDEADYYCQVWDLFNDNGVFGGGTKLTVLG
B3: 097D09 scFv (non-germlined) (scFv)
scFv: EVQLVESGGGLVTPGGSLRLSCAASGFTFSDYYMSWVRQAPGRGLEWVSAISGSGGSTYYADSVKGRITISRDNAKNSLYLQMSSLRSEDTAVYYCARGLWVWDPLDYWGRGTLVTVSSGGGGSGGGGSGGGGSDIQMTQSPSTLSASIGDRVTITCRASEGIYHWLAWYQQKPGKAPKLLIYKASSLASGAPSRFSGSGFGTDFTLTISSLQPDDFATYYCQQYSEFAWTFGGGTKLEIKRAAAH
B4: 355B06 scFv (non-germlined) (scFv)
scFv: EVQLVQSGAEVKKPGASVKVSCQASGYTFTDYYMHWVRQAPGQGLEWVGWINPYTGSAFYAQKFRGRATMTRNTSINTAYMELSRLGSDDTAVYYCAREPEKFGESSGQLWGRGTMVTISSGGGGSGGGGSGGSGSAQAVLTQPSSVSGAPGQRVTISCTGSSSNIGPGYGVHWYQQLPGTAPKLLIYGDSNRPSGVPDRFSGSKSGTSASLAITGLQAEDEADYYCQSYDSGLSGYVFGTGTQLTVLSA
B5: 062A09 IgG (non-germlined) (antibody, V domains shown)
VH: QVQLVESGAEVKKPGASVKVSCKASGYTFTSYGISWVRQAPGQGLEWMGWVSAYTGNTNYAQKFQGRVTMTTDTSTSTAYMELRGLRSDDTAVYYCARDRGYYDAFDIWGQGTLVTVSS
VL: DIQMTQSPSTLSASIGDRVTITCRASEGIYHWLAWYQQKPGKAPKLLIYKASSLASGAPSRFSGSGFGTDFTLTISSLQPDDFATYYCQQMGEYNATIGGGTKLEIKR
B6: 367D04 scFv (non-germlined) (scFv)
scFv: EVQLVESGGGVVRPGGSLRLSCAASGFTFDDYGMNWVRQAPGKGLEWVSGVNWNGGTRDYAASVKGRFTISRDNAKNSLYLQMNSLRAEDTALYYCARGWYSGSPWSLGHWGRGTLVTVSSGGGGSGGGGSGGSGGGSGGSGGGSSGGGSGGGGSAQAVLTQPSSVSGSPGQSVTISCTGASGDVGAYNFVSWYQQHPGKTPKLIIYDVNKRPSGVSNRFSGSKSGNTASLTISRLQAEDESDYYCSSYTSRYTTEFGGGTKVTVLGAAAH
B7: 354A08 scFv (non-germlined) (scFv)
scFv: QVQLVQSGAEKKPGASVKVSCKASGYTFTDYYMHWVRQAPGQGLEWVGWINPYTGGAFYAQKFRGRVTMTRDTSINTAYMELSRLGSDDTAVYYCAREPERFGDSTGQVWGRGTMVTVSSGGGGSGGGGSGGSRSAQAVLTQPSSVSGAPRQRVTISCTGSSSNIGAGYGVHWYQQLPGTAPKLLIYGNSNRPSGVPDRFSGSKSGTSASLAITGLQAEDEADYYCYHWDKEQSGYVFGTGTQLTVLSA
B8: 087B03 scFv (non-germlined) (scFv)
scFv: EVQLVESGGGVVRPGGSLRLSCAASGFTFDDYGMNWVRQAPGKGLEWVSGVNWNGGTRDYAASVKGRFTISRDNAKNSLYLQMNSLRAEDTALYYCARGWYSGAAWNMGYWGRGTLVTVSSGGGGSGGGGSGGGGSAQAVLTQPSSVSGSPGQSITISCTGASGDVGAYNFVSWYQQHPGKTPKLIIYDVNKRPSGVSNRFSGSKSSNTASLTISGLQAEDESDYYCSSYTSTFSVVFGGGTKVTVLGAAAH
B9: 375G06 scFv (non-germlined) (scFv)
scFv: EVQLVQSGAEVKKPGASVKVSCQASGYTFSDYYIHWVRQTPGQGFEWMGWVNPDTGGTRYAQKFQGWVTMTRDMSNTTAYMELPRLRDDDTAVYYCARDLTGYDYYDRWGQGTLVTVSSGGGGSGGGGSGGGGGGSGGGGGGSGGGGSAQSVLTQPPSMSVAPGKTATITCGGNNFRNKRVHWYQQRPGQAPVLVIYYDSDRPSGIPERFSGSRSGNTATLTISRVEAGDEADFYCQVWDFLADEAMFGGGTKLTVLGAAAH
B10: 166B06 IgG (non-germlined) (antibody, V domains shown)
VH: B2 VH with Q1E, K23Q, A40T, L45F, R67W, I76N, S77T, S84P, S88D
VL: B2 VL with S1Q, R19T, K38R, Y85F
B11: 166G05 IgG (non-germlined) (antibody, V domains shown)
VH: B2 VH with Q1E, K23Q, A40T, L45F, R67W, I76N, S77T, S84P, S88D
VL: B2 VL with S1Q, R19T, K38R, Y85F, L92F, F93L, N94T, N96S, V98S
B12: 368D04 scFv (non-germlined) (scFv)
scFv: EVQLVESGGGVVRPGGSLRLSCAASGFTFDDYGMNWVRQAPGKGLEWVSGVNWNGGTRDYAASVKGRFTISRDNAKNSLYLQMNSLRAEDTALYYCARGWYSGAAWNMGYWGRGTLVTVSSGGGGSGGGGSGGSGGGSGGGGGGSGGGGSAQAVLTQPSSVSGSPGQSITISCTGASGDVGAYNFVSWYQQHPGKTPKLIIYDVNKRPSGVSNRFSGSKSGNTASLTISGLQAEDESDYYCASLVSDFSVVFGGGTKVTVLGAAAH
B13: 062G05 scFv (non-germlined) (scFv)
scFv: QVQLVESGAEVKKPGASVKVSCKASGYTFTSYGISWVRQAPGQGLEWMGWISAYTGNTNYAQKFQGRVTMTTDTSTSTAYMELRSLRSDDTAVYYCARDRGYYDAFDIWGQGTLVTVSSGGGGSGGGGSGGGGSDIQMTQSPSTLSASIGDRVTITCRASEGIYHWLAWYQQKPGKAPKLLIYKASSLASGAPSRFSGSGFGTDFTLTISSLQPDDFATYYCQQMGEWKAAFGGGTKLEIKRAAAH
B14: 062A09 scFv (non-germlined) (scFv)
scFv: B13 scFv with I51V, S85G, F106Y, W228Y, K229N, A231T, F232I
B15: 356A11 scFv (non-germlined) (scFv)
scFv: QVQLVQSGAEVKKPGASVKVSCKASGYTFTNYYMHWVRQAPGQGLEWVGWINPYTGSAFYAQKFRGRVTMTRDTSINTAYMELSRLGSDDTAVYYCAREPEKFDSDDSDVWGRGTMVTVSGGGGSSGGGGSGGSGSAQAVLTPPSVSGAPGQRVTISCTGSSSNIGAGYGVHWYQQLPGTAPKLIIYGDSSRPSGVPDRFSGSKSGTSASLAITGLQAEDEADYYCQSYDNSLSGYVFGTGTQLTVLSA
B16: 166G05 scFv (non-germlined) (scFv)
scFv: EVQLVQSGAEVKKPGASVKVSCQASGYTFSDYYIHWVRQTPGQGFEWMGWVNPDTGGTRYAQKFQGWVTMTRDMSNTTAYMELPRLRDDDTAVYYCARDLTGFDPFDIWGQGTLVTVSSGGGGSGGGGSGGGGSAQSVLTQPPSVSVAPGKTATITCGGNNFRNKRVHWYQQRPGQAPVLVIYYDSDRPSGIPERFSGSRSGNTATLTISRVEAGDEADFYCQVWDFLTDSGSFGGGTKLTVLGAAAH
B17: 166B06 scFv (non-germlined) (scFv)
scFv: B16 scFv with G123S, F227L, L228F, T229N, S231N, S233V
B18: 376B10 scFv (non-germlined) (scFv)
scFv: EVQLVQSGAEVKKPGASVKVSCQASGYTFSDYYIHWVRQTPGQGFEWMGWVNPDTGGTRYAQKFQGWVTMTRDMSNTTAYMELPGLRDDDTAVYYCARDLTGYDQYTAWGQGTLVTVSSGGGGSGGGGSGGGGSAQSVLTQPPSVSVAPGKTATITCGGNNFRNKRVHWYQQRPGQAPVLVIYYDSDRPSGIPERFSGSRSGNTATLTISRVEAGDEADFYCSTFDPFTDRPLFGGGTKLTVLGAAAH
B19: 355E04 scFv (non-germlined) (scFv)
scFv: QVQLVQSGAEVKKPGASVKVSCKASGYTFTHYYMHWVRQAPGQGLEWVGWINPYTGGAFYAQKFQGRVTMTRDTSINTAYMELSRLGSDDTAVYYCAREPEKFDSPNAEIWGRGTMVTISSEGGGSGGGGSGGSGSAQAVLTQPSSVSGAPGQRVTISCTGSSSNIGAGYGVHWYQQLPGTAPKLLIYGNSNRPSGVPDRFSGSKSGTSASLAITGLQAEDEADYYCQSYDSSLSGYVFGTGTQLTVLSA

Target: T1, IL-26
Test: ELISA: plate coated with 1 µg/ml antigen, IgG added at 1 µg/ml, HRP goat anti-human IgG, A450
Experimental: Cross species reactivity of germlined and non-germlined optimized antibodies were determined as follows: ELISA plates (Costar, Cat. #3590) were coated overnight with 1 μg/ml of rat, mouse, or human IL-22 or human IL-26 in PBS buffer. Plates were washed with PBST buffer (0.05% Tween20 in PBS) 3 times, then blocked with 1% BSA (Sigma A8918)/PBST for 1 hr at RT. Antibodies were added at 1 μg/ml, incubated 1 hr at 25° C. […] The plates were incubated for 1 hour at 25° C., then washed with PBST, and developed with TMB (KPL, Cat. #50-76-04). Reaction was stopped with 0.18 M H₂SO₄ Plates were read at OD 450 nm.

| binding result | Binder |
| --- | --- |
| no binding (tested: 1 µg/ml) | B1 |
| no binding (tested: 1 µg/ml) | B2 |

Target: T2, human IL-22
Test: cell-based or functional assay

| IC50 of scFv (pM) in BaF3-IL-22 proliferation assay [pM] | IC50 of IgG (pM) in BaF3-IL-22 proliferation assay [pM] | Binder |
| --- | --- | --- |
| 298 |  | B3 |
| 183 |  | B4 |
|  | 83 | B5 |
| 160 |  | B6 |
| 219 |  | B7 |
| 212 |  | B8 |
| 118 |  | B9 |
|  | 71 | B10 |
|  | 97 | B11 |
| 186 |  | B12 |
| 182 |  | B13 |
| 267 |  | B14 |
| 124 |  | B15 |
| 204 |  | B16 |
| 460 |  | B17 |
| 104 |  | B18 |
| 192 |  | B19 |

Target: T3, BSA (bovine, UniProt P02769)
T3 construct: also called bovine serum albumin
Test: ELISA: plate coated with antigen, IgG added at 1 µg/ml, HRP goat anti-human IgG, A450

T3 sequence (P02769 25-607 limits assumed): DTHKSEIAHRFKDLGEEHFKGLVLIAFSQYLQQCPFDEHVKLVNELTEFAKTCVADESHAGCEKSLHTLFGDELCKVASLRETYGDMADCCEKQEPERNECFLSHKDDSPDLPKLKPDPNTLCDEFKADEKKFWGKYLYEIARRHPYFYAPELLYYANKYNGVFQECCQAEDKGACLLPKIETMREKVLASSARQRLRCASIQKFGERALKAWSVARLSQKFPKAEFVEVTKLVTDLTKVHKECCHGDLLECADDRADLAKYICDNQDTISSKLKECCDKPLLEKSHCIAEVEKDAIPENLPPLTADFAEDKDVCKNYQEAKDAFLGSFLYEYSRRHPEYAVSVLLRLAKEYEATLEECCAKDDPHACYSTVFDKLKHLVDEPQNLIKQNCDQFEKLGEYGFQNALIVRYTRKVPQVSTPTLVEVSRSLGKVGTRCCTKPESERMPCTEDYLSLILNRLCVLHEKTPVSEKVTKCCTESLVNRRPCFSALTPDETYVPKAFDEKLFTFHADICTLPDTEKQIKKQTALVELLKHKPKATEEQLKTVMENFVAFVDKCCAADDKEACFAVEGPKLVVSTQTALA

| binding result | Binder |
| --- | --- |
| no binding (tested: 1 µg/ml) | B1 |
| no binding (tested: 1 µg/ml) | B2 |
